Test results as given in the supplement of paper PMC10567573.
± gives the standard deviation.

Assay: protein stability index of a GFP-peptide fusion (GPS, HEK-293T) (PSI 1-6); higher = more stable
[1] = treatment: DMSO, c terminus: a fixed tail appended
[2] = treatment: MLN4924 1 uM, 8 h, c terminus: a fixed tail appended
[3] = treatment: DMSO, c terminus: native
[4] = treatment: MLN4924 1 uM, 8 h, c terminus: native
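Also: 24-mer peptide tiles fused after GFP, lentivirally expressed, FACS-sorted into six equal bins by GFP/DsRed ratio, decoded by Illumina sequencing, PSI is the read-weighted mean bin number.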

LLHSRNEGVATYAAAVLFRMSEDK [CTNNB1]
protein stability index [1]: 2.9 ± 0.36
protein stability index [2]: 3.22 ± 0.087

LLISCAVSYRGAWWYRNCHYANLN [TNXB]
protein stability index [1]: 2.97 ± 0.19
protein stability index [2]: 2.99 ± 0.72

LLKKKPPQQQHHKAKRNRTCRPPS [ANKRD17]
protein stability index [1]: 3.93 ± 0.22
protein stability index [2]: 4 ± 0.29

LLPNPYQQDFLGLPEELRRLSGLS [C22orf15]
protein stability index [1]: 2.91 ± 0.17
protein stability index [2]: 2.91 ± 0.34

LLPQERPLMQGPRTRPRKPIRCGE [KLHL20]
protein stability index [1]: 3.71 ± 0.35
protein stability index [2]: 3.98 ± 0.084

LLQGAGLDVERWLKPAMTQAQDEV [FCHSD1]
protein stability index [1]: 3.6 ± 0.28
protein stability index [2]: 3.54 ± 0.26

LLTGQCDFGSNCRFSHMSERDLQE [ZMAT5]
protein stability index [1]: 2.67 ± 0.21
protein stability index [2]: 2.78 ± 0.17

LNDIFHLLKSHTNVLSVNLPDNFT [TPH1]
protein stability index [1]: 2.35 ± 0.32
protein stability index [2]: 2.05 ± 0.41

LNLGPALSAALASSQKQHSFTSSD [C8orf76]
protein stability index [1]: 3.31 ± 0.31
protein stability index [2]: 3.35 ± 0.19

LNVQKTVDYTGQAKAQVRKAVQYE [STX11]
protein stability index [1]: 3.99 ± 0.11
protein stability index [2]: 4.09 ± 0.19

LPDPNNYYHRRNEMTTTDDLDFKH [CPXM2]
protein stability index [1]: 4.55 ± 0.23
protein stability index [2]: 4.7 ± 0.45

LPIIQSNQVSSNSWGIAGETELAL [DLC1]
protein stability index [1]: 3.52 ± 0.48
protein stability index [2]: 3.63 ± 0.2

LPLMDLCRRSVRLALGRERLGEIH [SPSB1]
protein stability index [1]: 2.56 ± 0.28
protein stability index [2]: 2.42 ± 0.29

LPPPCAALWCSGHLNGHAMCQTKH [ADAMTS4]
protein stability index [1]: 3.13 ± 0.24
protein stability index [2]: 3.17 ± 0.3

LPPPDPNPPRAEFNYSVGFKDLNE [APBB1IP]
protein stability index [1]: 4.42 ± 0.23
protein stability index [2]: 4.36 ± 0.075

LQCLQALYVDSLFFLRGRLDQLLR [PRAME]
protein stability index [1]: 2.09 ± 0.057
protein stability index [2]: 2.2 ± 0.61

LQGALDLLAVLCVDGSGRARQAAC [ZSWIM9]
protein stability index [1]: 2.2 ± 0.27
protein stability index [2]: 2.02 ± 0.18

LQLETVLEGVVSQIDAVGSKLKML [PKD2L1]
protein stability index [1]: 2.37 ± 0.42
protein stability index [2]: 2.37 ± 0.11

LQQDFQNIQETHRLYRLKLEELTK [TMEM120A]
protein stability index [1]: 3.3 ± 0.38
protein stability index [2]: 3.37 ± 0.28

LRAESDFEQLPDDVAISANIADIE [NCF4]
protein stability index [1]: 4.66 ± 0.28
protein stability index [2]: 5.21 ± 0.19

LRASGSLCGPHAKAPYLCEATHEP
protein stability index [1]: 2.84 ± 0.22
protein stability index [2]: 3.1 ± 0.27

LRDEHRCASKYGRDWERYTAAVPY [DHCR7]
protein stability index [1]: 2.67 ± 0.12
protein stability index [2]: 2.92 ± 0.2

LRLCAWGLASWPLARGIHVAGILS [POMT2]
protein stability index [1]: 2.3 ± 0.26
protein stability index [2]: 2.22 ± 0.2

LRLEWETQQELRKIREKEEWIKLD [IQUB]
protein stability index [1]: 3.12 ± 0.62
protein stability index [2]: 3.44 ± 0.63

LRLYKHNSQALLLHSSILTCTLLL [MFSD9]
protein stability index [1]: 2.74 ± 0.6
protein stability index [2]: 2.88 ± 0.67

LRQLVESDINSLRRILDELTLCRS [KRT33B]
protein stability index [1]: 2.31 ± 0.14
protein stability index [2]: 2.41 ± 0.15

LSFATRFHRLDEPPHICWDETHFG [POMT2]
protein stability index [1]: 2.25 ± 0.29
protein stability index [2]: 2.25 ± 0.26

LSGVDLELVGSGYRMSLVKRRFAT [FCHO1]
protein stability index [1]: 2.33 ± 0.2
protein stability index [2]: 2.37 ± 0.18

LSRYLIEPCGPGKSKLTYMCRVDL [DLC1]
protein stability index [1]: 2.99 ± 0.73
protein stability index [2]: 3.2 ± 1.3

LSSPEFSELCIWLGSQIKSLCNLE [FAM98B]
protein stability index [1]: 2.17 ± 0.81
protein stability index [2]: 2.76 ± 0.82

LSVLPQLEFKLKSNDNEERLQVVK [PDS5B]
protein stability index [1]: 3.77 ± 0.11
protein stability index [2]: 3.7 ± 0.25

LSVQQPTALALEPDAIRSRSNTLR [PCDHGC5]
protein stability index [1]: 4.43 ± 0.17
protein stability index [2]: 4.56 ± 0.19

LSWELLDSHLGGNARGMGIRSPRP [CTBP1-DT]
protein stability index [1]: 3.18 ± 0.46
protein stability index [2]: 3.18 ± 0.3

LTLVLVASVLLQAVLYPRFMGTIS [CD207]
protein stability index [1]: 2.99 ± 0.28
protein stability index [2]: 3.25 ± 0.45

LTQKKPFADEKNILHIMVKVVKGH [RIPK4]
protein stability index [1]: 2.01 ± 0.18
protein stability index [2]: 1.79 ± 0.48

LVHSAVDVPTIQEKVNEGKYRSYE [ZMYND11]
protein stability index [1]: 4.47 ± 0.3
protein stability index [2]: 4.32 ± 0.2

LVPDASKQRLMENTEDWRPRPGTG [PDLIM7]
protein stability index [1]: 4.47 ± 0.2
protein stability index [2]: 4.53 ± 0.32

LVQLRNMVQQIQENSVEFEACLVA [TRIM9]
protein stability index [1]: 2.25 ± 0.1
protein stability index [2]: 2.54 ± 0.37

LVVFAVLGFKANIMNEKCVVENAE [SLC6A17]
protein stability index [1]: 2.97 ± 0.32
protein stability index [2]: 2.82 ± 0.39

LVVNIDNAKLASDDFRSKYQTEQS [KRT34]
protein stability index [1]: 3.65 ± 0.2
protein stability index [2]: 3.62 ± 0.2

LVYENFYADFGPLNLAMVYRYCCK [CDC14A]
protein stability index [1]: 2.8 ± 0.27
protein stability index [2]: 2.5 ± 0.55

LWEAPPLGAGGGSLLPGAVEQPQP [NEK8]
protein stability index [1]: 4.42 ± 0.13
protein stability index [2]: 4.36 ± 0.15

LYYLRASKAAAGKMNLYESFAQAT [INTS3]
protein stability index [1]: 2.59 ± 0.39
protein stability index [2]: 2.57 ± 0.31

MAAGTSSYWEDLRKQARQLENELD [GOSR1]
protein stability index [1]: 4.11 ± 0.15
protein stability index [2]: 3.99 ± 0.25

MADCILVNSQFTAAVFKETFKSLS [ALG2]
protein stability index [1]: 2.66 ± 0.42
protein stability index [2]: 2.73 ± 0.55

MAESLRSPRRSLYKLVGSPPWKEA [RPAIN]
protein stability index [1]: 2.73 ± 0.48
protein stability index [2]: 2.77 ± 0.53

MAGAATGSRTPGRSELVEGCGWRC [TRIM14]
protein stability index [1]: 3.46 ± 0.32
protein stability index [2]: 3.61 ± 0.26

MAMYWGTSRWSSMEIMEAYSVARQ [KCNAB2]
protein stability index [1]: 2.43 ± 0.52
protein stability index [2]: 2.06 ± 0.43

MAPLLFNGCRSGEIFAIDLRCGNQ [DCAF4]
protein stability index [1]: 2.52 ± 0.29
protein stability index [2]: 2.3 ± 0.56

MASLGPAAAGEQASGAEAEPGPAG [BTBD1]
protein stability index [1]: 5.55 ± 0.16
protein stability index [2]: 5.52 ± 0.31

MEGKPMRRCTNIRPGETGMDVTSR [KLHL20]
protein stability index [1]: 4.34 ± 0.085
protein stability index [2]: 4.41 ± 0.19

MEPPGPVRGPLQDSSWYEPSAELV [ZNF232]
protein stability index [1]: 4.79 ± 0.3
protein stability index [2]: 4.67 ± 0.43

MFFKDRFYMRTNPFYPEVELNFIS [MMP1]
protein stability index [1]: 2.44 ± 0.73
protein stability index [2]: 2.71 ± 0.68

MFVFQDGRWVNENCRLQSPYFSPS [CBY2]
protein stability index [1]: 2.36 ± 0.37
protein stability index [2]: 2.05 ± 0.42

MGCHGFRDPFECNMCGYHSQDRYE [IKZF1]
protein stability index [1]: 3.2 ± 0.11
protein stability index [2]: 3 ± 0.3

MGGPAISMASPMSIPTNTMHYGS [CARM1]
protein stability index [3]: 2.96 ± 0.25
protein stability index [4]: 2.95 ± 0.23

MHLARCRWASAPPLYTLIDVLKYS [ZSWIM9]
protein stability index [1]: 2.94 ± 0.22
protein stability index [2]: 2.43 ± 0.35

MHMVDLMSSIICEGDTVSQELLDT [PDS5B]
protein stability index [1]: 3.6 ± 0.31
protein stability index [2]: 3.57 ± 0.14

MHYQMSVTLKYEIKKLIYVHLVIW [JAGN1]
protein stability index [1]: 3.1 ± 0.32
protein stability index [2]: 3.15 ± 0.8

MKLFLDCLKEFPEKQELHRNMLGL [ZER1]
protein stability index [1]: 2.35 ± 0.11
protein stability index [2]: 2.4 ± 0.35

MKSAMRKLWSKKVSLAGKWLYHS [OR4A15]
protein stability index [3]: 2.47 ± 1.1
protein stability index [4]: 2.59 ± 0.44

MLKIHRSDPQLIVQLRFCGRQPCG [TRADD]
protein stability index [1]: 2.46 ± 0.73
protein stability index [2]: 1.92 ± 0.39

MMHDQRTGPAWNVLMWTMLFLGQG [SOAT2]
protein stability index [1]: 2.8 ± 0.93
protein stability index [2]: 2.65 ± 0.59

MNLMNELKQNFSKSWHDMQTTTAY [TPD52L1]
protein stability index [1]: 2.62 ± 0.34
protein stability index [2]: 2.47 ± 0.15

MPHSVTLRGPSPWGFRLVGGRDFS [PDLIM4]
protein stability index [1]: 2.61 ± 0.37
protein stability index [2]: 2.8 ± 0.23

MQEDRDGSCSTVGGVGYGDSKDCI [ZNF277]
protein stability index [1]: 5.04 ± 0.28
protein stability index [2]: 5.1 ± 0.18

MQFLIRSHECKPEGYEFCHNRKVL [PPEF2]
protein stability index [1]: 2.28 ± 0.34
protein stability index [2]: 2.55 ± 0.18

MSADPHLASSLSPSQDERMRSPQN [NOL4L]
protein stability index [1]: 5.17 ± 0.25
protein stability index [2]: 5.15 ± 0.24

MSPGPLDALSSPTSVQEADETTRS [C2CD2L]
protein stability index [1]: 5.35 ± 0.37
protein stability index [2]: 5.38 ± 0.15

MSRVHGMHPKETTRQLSLAVKDGL [ZMYND11]
protein stability index [1]: 3.83 ± 0.22
protein stability index [2]: 3.89 ± 0.4

MSVGHLRLLSHDQVAMPYQWEYPY [JAGN1]
protein stability index [1]: 2.11 ± 0.29
protein stability index [2]: 2.02 ± 0.4

NAGLVWFFPWREAKPGSTEKGLPL [MFSD9]
protein stability index [1]: 2.23 ± 0.18
protein stability index [2]: 2.16 ± 0.29

NASFIDGYRQQKAYIATQGPLAET [PTPRD]
protein stability index [1]: 3.46 ± 0.43
protein stability index [2]: 3.53 ± 0.49

NCFEITLELSCDKFPPEEELQREW [CPN1]
protein stability index [1]: 2.77 ± 0.24
protein stability index [2]: 3.1 ± 0.22

NDLLEILEIDDLDAIVPAVKKLKV [CEP70]
protein stability index [1]: 2.4 ± 0.46
protein stability index [2]: 2.87 ± 0.27

NGCEVKNRKSILSRHLNSQVKKTT [PHTF1]
protein stability index [1]: 3.95 ± 0.24
protein stability index [2]: 4 ± 0.37

NGDPESVASLHWDGGALLGVLQYR [ADAMTS4]
protein stability index [1]: 2.29 ± 0.74
protein stability index [2]: 2.54 ± 0.35

NGSDNLPSSAGSGDKPLSDPAPF [TPD52L2]
protein stability index [3]: 5.44 ± 0.21
protein stability index [4]: 5.51 ± 0.18

NGSVGVKNSMENGRPPDPADWAVM [SAMD13]
protein stability index [1]: 3.99 ± 0.26
protein stability index [2]: 4.06 ± 0.24

NGTEDLPYAMKPIDYYTETKILQE [NSDHL]
protein stability index [1]: 4.28 ± 0.17
protein stability index [2]: 4.22 ± 0.051

NHGQVVSYLLKSGADKEILTTKGE [ANKRD40]
protein stability index [1]: 4.08 ± 0.28
protein stability index [2]: 3.9 ± 0.26

NICHVWHMNVEALPEWISCLIQKA [RNF180]
protein stability index [1]: 2.01 ± 0.24
protein stability index [2]: 2.57 ± 0.38

NIKPRRYLTVVFEHDAWFIFFMAA [SLC29A1]
protein stability index [1]: 3.1 ± 0.48
protein stability index [2]: 2.48 ± 0.61

NLLGEGQHKCDECGKSFTQSSGLI [ZSCAN9]
protein stability index [1]: 3.66 ± 0.3
protein stability index [2]: 3.68 ± 0.28

NLNAATDDPENKKTSSSSKAGFTA [CDC14A]
protein stability index [1]: 5.17 ± 0.16
protein stability index [2]: 5.02 ± 0.062

NLSEFQHVISRSPDFASSFKIVL [CIB1]
protein stability index [3]: 2.29 ± 0.45
protein stability index [4]: 2.32 ± 0.44

NMQQPMNVMTQSFGAVNLSSPSNM [CLINT1]
protein stability index [1]: 3.44 ± 0.17
protein stability index [2]: 3.66 ± 0.17

NMSSSRGPLPVKRGPPPRSGGPPP [RBMX]
protein stability index [1]: 4.41 ± 0.22
protein stability index [2]: 4.45 ± 0.45

NNTLVALPIVAIENILSFMSYDEI [FBXO28]
protein stability index [1]: 3.22 ± 0.33
protein stability index [2]: 3 ± 0.61
